Common to all, as to test: other fluorescence titration
Test [1] concerns the target T1, Ffh (E. coli SRP protein), wild type (E. coli, UniProt P0AGD7 1-453).
T1 sequence (looked up): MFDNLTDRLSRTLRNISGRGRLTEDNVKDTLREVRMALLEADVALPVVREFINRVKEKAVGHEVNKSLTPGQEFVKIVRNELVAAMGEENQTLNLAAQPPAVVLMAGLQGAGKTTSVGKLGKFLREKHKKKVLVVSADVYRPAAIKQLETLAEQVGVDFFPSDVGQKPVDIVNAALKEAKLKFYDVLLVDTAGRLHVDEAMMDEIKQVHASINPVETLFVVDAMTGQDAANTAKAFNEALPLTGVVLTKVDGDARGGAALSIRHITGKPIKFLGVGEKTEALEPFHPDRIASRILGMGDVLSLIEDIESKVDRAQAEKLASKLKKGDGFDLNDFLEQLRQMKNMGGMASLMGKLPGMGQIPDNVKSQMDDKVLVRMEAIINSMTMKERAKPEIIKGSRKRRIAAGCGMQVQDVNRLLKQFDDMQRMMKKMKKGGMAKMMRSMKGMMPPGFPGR

Test [2] concerns the target T1, Ffh (E. coli SRP protein), wild type. This is another data set of the same source.
The target is the same in test [3]. This is another data set of the same source.

Results on three molecules are retold here after PMC2767265 (Nature structural & molecular biology, 2008).

Like-named read-outs stand apart in the source and are kept apart here.

B1: FtsYΔN1 (FtsY residues 221-497, lacks the A domain and the first helix of the N domain) (domain or fragment, E. coli, UniProt P10121 221-497, looked up)
chain: KKIDDDLFEELEEQLLIADVGVETTRKIITNLTEGASRKQLRDAEALYGLLKEEMGEILAKVDEPLNVEGKAPFVILMVGVNGVGKTTTIGKLARQFEQQGKSVMLAAGDTFRAAAVEQLQVWGQRNNIPVIAQHTGADSASVIFDAIQAAKARNIDVLIADTAGRLQNKSHLMEELKKIVRVMKKLDVEAPHEVMLTIDASTGQNAVSQAKLFHEAVGLTGITLTKLDGTAKGGVIFSVADQFGIPIRYIGVGERIEDLRPFKADDFIEALFARED
In general, Kd refers to the free concentration of one partner at which half of the binding sites on the other are occupied at equilibrium, for simple one-to-one binding. Read a low Kd as a tighter complex. A word on the koff: it is the rate constant with which the complex falls apart. Higher therefore signals a short-lived complex. The kon is the rate constant with which the complex forms. A low value points to slow association. For the molecule B1, in test [1], the Kd is 7.98 ± 1.1 nM, the off-rate (koff) is 5.47e-06 s⁻¹ and the kon stood at 685 M⁻¹ s⁻¹. Besides, in test [2], binding was put at a Kd of 14.9 ± 2.1 nM, the koff worked out at 0.000605 s⁻¹ and the kon is 40500 M⁻¹ s⁻¹.

B2: FtsY204 (FtsY residues 204-497, includes helix N1) (domain or fragment, E. coli, UniProt P10121 204-497, looked up)
chain: LKTKENLGSGFISLFRGKKIDDDLFEELEEQLLIADVGVETTRKIITNLTEGASRKQLRDAEALYGLLKEEMGEILAKVDEPLNVEGKAPFVILMVGVNGVGKTTTIGKLARQFEQQGKSVMLAAGDTFRAAAVEQLQVWGQRNNIPVIAQHTGADSASVIFDAIQAAKARNIDVLIADTAGRLQNKSHLMEELKKIVRVMKKLDVEAPHEVMLTIDASTGQNAVSQAKLFHEAVGLTGITLTKLDGTAKGGVIFSVADQFGIPIRYIGVGERIEDLRPFKADDFIEALFARED
modifications: for NMR: 13C on the methyl groups of isoleucine, leucine and valine
As for B2, the binding result in test [3] is given as “binds”.

B3: FtsY lacking the first 46 amino acids of the A domain (wild-type reference) (domain or fragment, E. coli, UniProt P10121 47-497, looked up)
chain: ASEQAVEEQPQAHTEAEAETFAADVVEVTEQVAESEKAQPEAEVVAQPEPVVEETPEPVAIEREELPLPEDVNAEAVSPEEWQAEAETVEIVEAAEEEAAKEEITDEELETALAAEAAEEAVMVVPPAEEEQPVEEIAQEQEKPTKEGFFARLKRSLLKTKENLGSGFISLFRGKKIDDDLFEELEEQLLIADVGVETTRKIITNLTEGASRKQLRDAEALYGLLKEEMGEILAKVDEPLNVEGKAPFVILMVGVNGVGKTTTIGKLARQFEQQGKSVMLAAGDTFRAAAVEQLQVWGQRNNIPVIAQHTGADSASVIFDAIQAAKARNIDVLIADTAGRLQNKSHLMEELKKIVRVMKKLDVEAPHEVMLTIDASTGQNAVSQAKLFHEAVGLTGITLTKLDGTAKGGVIFSVADQFGIPIRYIGVGERIEDLRPFKADDFIEALFARED
In test [1], B3 had a Kd of 82.7 ± 13 nM, a koff of 8.6e-06 s⁻¹ and a kon of 104 M⁻¹ s⁻¹. In test [2], this molecule showed a Kd of 68.4 ± 4.2 nM, a koff of 0.00265 s⁻¹ and a kon of 38800 M⁻¹ s⁻¹.
